This is an account of results in FireProtDB (doi:10.1021/acs.biochem.7b00571).

To fix the notation:
B1: Salicylic acid-binding protein 2, Q6RYA0 (parent)
chain: MKEGKHFVLVHGACHGGWSWYKLKPLLEAAGHKVTALDLAASGTDLRKIEELRTLYDYTLPLMELMESLSADEKVILVGHSLGGMNLGLAMEKYPQKIYAAVFLAAFMPDSVHNSSFVLEQYNERTPAENWLDTQFLPYGSPEEPLTSMFFGPKFLAHKLYQLCSPEDLALASSLVRPSSLFMEDLSKAKYFTDERFGSVKRVYIVCTEDKGIPEEFQRWQIDNIGVTEAIEIKGADHMAMLCEPQKLCASLLEIAHKYN

This series covers variants of B1. Conditions: Nicotiana tabacum; pH 7.2; 4 °C; Urea; Fluorescence; BES; reversible: yes; structure 1Y7I; whole UniProt chain shown.
Take K188R: the “denaturant midpoint (higher = more stable)” value (“denaturant midpoint” for short) worked out at 2.5 M.

Take A71P: the “denaturant midpoint” value is 1.9 M.

On to I225T, for which the “denaturant midpoint” value amounted to 1.5 M.

For the variant S165P, the “denaturant midpoint” value was determined as 2.5 M.

Regarding A230V, the “denaturant midpoint” value is 2.6 M.

As to S141P, the “denaturant midpoint” value was 2.2 M.

For S141N, the “denaturant midpoint” value came out at 1.8 M.

Regarding N114L, the “denaturant midpoint” value turned out to be 2 M.

Turning to N114G, the “denaturant midpoint” value was determined as 2.5 M.

Turning to G17A, the “denaturant midpoint” value was determined as 2.1 M.

As to A172V, the “denaturant midpoint” value came out at 2.3 M.

On to F197Y, for which the “denaturant midpoint” value is 2.2 M.

A250K: the “denaturant midpoint” value turned out to be 2 M.

Turning to Y94F, the “denaturant midpoint” value stood at 2.2 M.

On to S111P, for which the “denaturant midpoint” value came to 1.7 M.

As to S111G, the “denaturant midpoint” value turned out to be 1.7 M.

Regarding L65F, the “denaturant midpoint” value turned out to be 3.8 M.

Regarding C249A, the “denaturant midpoint” value was determined as 2.1 M.

Regarding L46P, the “denaturant midpoint” value turned out to be 2.4 M.

With G226P, the “denaturant midpoint” value amounted to 1.6 M.

On to E244K, for which the “denaturant midpoint” value came to 3 M.

In the case of E215P, the “denaturant midpoint” value is 3.2 M.

For V227P, the “denaturant midpoint” value was determined as 1.8 M.

Q221M: the “denaturant midpoint” value was determined as 2.7 M.

Regarding L60R, the “denaturant midpoint” value stood at 2.7 M.

For A189S, the “denaturant midpoint” value was found to be 2.5 M.

On to A189N, for which the “denaturant midpoint” value stood at 2.6 M.

I231R: the “denaturant midpoint” value worked out at 1.9 M.

As to G212C, the “denaturant midpoint” value came out at 3.5 M.

In the case of Q162H, the “denaturant midpoint” value came to 2.4 M.

In the case of C164S, the “denaturant midpoint” value came to 0.9 M.

Regarding S115P, the “denaturant midpoint” value was found to be 1.9 M.

As for S115A, the “denaturant midpoint” value came to 2.4 M.

As for T228S, the “denaturant midpoint” value stood at 1.9 M.

K247E: the “denaturant midpoint” value turned out to be 1.1 M.

As to E144Y, the “denaturant midpoint” value stood at 2.4 M.

As for E144M, the “denaturant midpoint” value came out at 2 M.

Consider C243S, for which the “denaturant midpoint” value came out at 2.1 M.

Consider S251V, for which the “denaturant midpoint” value worked out at 2.2 M.

With S70P, the “denaturant midpoint” value worked out at 2.4 M.
